“Also recorded” adds a separate entry of the source. Each block holds one molecule with its values, some of them ahead of it. Square brackets hold non-standard residues; d marks the D form. Peptide text beside a SMILES is read from it. * marks the point of attachment. 4‑CH3‑Tyr = 4-CH3-Tyr: 4-methyl-tyrosine, a non-natural residue; 2Benzofuroyl(3-Me,6,7-diOMe) = COc1ccc2c(C)c(C(=O)*)oc2c1OC; Phe(4-Cl) = N[C@@H](Cc1ccc(Cl)cc1)C(=O)O; Hyp = O=C(O)[C@@H]1C[C@@H](O)CN1
Key:
purified EphA2-LBD = target: T1, purified EphA2-LBD (Homo sapiens, UniProt P29317); experiment: reverse isothermal titration calorimetry (ITC); format: binding; conditions: reverse ITC titration with purified EphA2-LBD
T1 construct: made in house

[1] = target: T2, EphA2-LBD (6xHis-EphA2 ligand-binding domain) (Homo sapiens, UniProt P29317); experiment: DELFIA displacement of biotinylated EphA2-binding reference peptide; conditions: DELFIA dose-response; listed as scrambled version of 135H11
T2 construct: made in house

[2] = target: 6xHis-EphA2 ligand-binding domain; experiment: ITC; reverse ITC titration with purified EphA2-LBD
EphA2 = conditions: cited from earlier work
EphA2 in BxPC3 cells = experiment: EphA2 receptor degradation, Western blot, BxPC3; format: cell-based, human; conditions: 1 h; 147B5 50 nM to 200 nM with streptavidin 50 nM (n = 1 to 4); scrambled 200 nM; 135H12 50 and 200 nM monomer concentration; ephrinA1-Fc 22 nM monomer (1 μg/mL); total EphA2, anti-EphA2 blot, relative to DMSO, duplicate
From the text: (Table 1). […] In these cell-based assays, receptor activation and degradation could be simply monitored by detecting the ability of each agent to reduce EphA2 expression levels over time, after exposure of cells to test ligands. […] Negative controls were DMSO-treated cells or cells treated with the (scrambled 147B5)4-streptavidine complex (Figure 3).
For the control scrambled agent, we tested it at its maximal 4:1 molar ratio with streptavidin. For these experiments we treated cells with increasing concentrations of 147B5 (from 50 nM to 200 nM) in the absence or presence of streptavidin (50 nM). […]
Figure 4 Effect of 147B5 and its complexes with streptavidin at various ratios on EphA2 receptor degradation. […] (b) Densitometry analysis based on duplicate measurements of band intensities relative to the bands of DMSO-treated cells. * p ≤ 0.05, as determined by a one-way analysis of variance using Dunnett post-test analysis. […]
Cells were lysed with cell lysis buffer (20 mM Tris, pH 7.4, 120 mM NaCl, 1% Triton X-100, 0.5% sodium deoxycholate, 0.1% SDS, 1% IGEPAL, 5 mM EDTA), supplemented with EDTA-free Protease Inhibitor Cocktail and PhosStop (Sigma Aldrich) for 15 min on ice. […] Subsequently, Clarity Western ECL solution (BIO-RAD) was added to the blots prior to being imaged on a FluorChem (ProteinSimple) and analyzed with AlphaView software.

[3] = tested on: EphA2 in MDA-MB-231 cells; experiment: EphA2 receptor degradation, Western blot, MDA-MB-231; format: cell-based, human; conditions: 1 h; 147B5 50 nM to 200 nM with streptavidin 50 nM (n = 1 to 4); scrambled 200 nM; 135H12 50 and 200 nM monomer concentration; ephrinA1-Fc 22 nM monomer (1 μg/mL); total EphA2, anti-EphA2 blot, relative to DMSO, duplicate
[4] = target: 6xHis-EphA2 ligand-binding domain; experiment: DELFIA displacement assay; earlier-generation biotinylated EphA2-binding reference peptide captured on streptavidin-coated 96-well plates; 6xHis-EphA2-LBD and Europium-conjugated anti-6xHis antibody added together with the test agent at various doses; residual fluorescence read after washing

T1 sequence (P29317 28-206 limits assumed): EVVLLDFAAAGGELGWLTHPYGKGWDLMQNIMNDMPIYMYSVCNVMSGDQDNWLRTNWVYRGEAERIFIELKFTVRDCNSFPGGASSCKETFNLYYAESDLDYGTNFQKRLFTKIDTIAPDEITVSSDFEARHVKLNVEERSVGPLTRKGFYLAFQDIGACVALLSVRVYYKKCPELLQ
6xHis-EphA2 ligand-binding domain, sequence (P29317 whole entry, the tested form may be a part): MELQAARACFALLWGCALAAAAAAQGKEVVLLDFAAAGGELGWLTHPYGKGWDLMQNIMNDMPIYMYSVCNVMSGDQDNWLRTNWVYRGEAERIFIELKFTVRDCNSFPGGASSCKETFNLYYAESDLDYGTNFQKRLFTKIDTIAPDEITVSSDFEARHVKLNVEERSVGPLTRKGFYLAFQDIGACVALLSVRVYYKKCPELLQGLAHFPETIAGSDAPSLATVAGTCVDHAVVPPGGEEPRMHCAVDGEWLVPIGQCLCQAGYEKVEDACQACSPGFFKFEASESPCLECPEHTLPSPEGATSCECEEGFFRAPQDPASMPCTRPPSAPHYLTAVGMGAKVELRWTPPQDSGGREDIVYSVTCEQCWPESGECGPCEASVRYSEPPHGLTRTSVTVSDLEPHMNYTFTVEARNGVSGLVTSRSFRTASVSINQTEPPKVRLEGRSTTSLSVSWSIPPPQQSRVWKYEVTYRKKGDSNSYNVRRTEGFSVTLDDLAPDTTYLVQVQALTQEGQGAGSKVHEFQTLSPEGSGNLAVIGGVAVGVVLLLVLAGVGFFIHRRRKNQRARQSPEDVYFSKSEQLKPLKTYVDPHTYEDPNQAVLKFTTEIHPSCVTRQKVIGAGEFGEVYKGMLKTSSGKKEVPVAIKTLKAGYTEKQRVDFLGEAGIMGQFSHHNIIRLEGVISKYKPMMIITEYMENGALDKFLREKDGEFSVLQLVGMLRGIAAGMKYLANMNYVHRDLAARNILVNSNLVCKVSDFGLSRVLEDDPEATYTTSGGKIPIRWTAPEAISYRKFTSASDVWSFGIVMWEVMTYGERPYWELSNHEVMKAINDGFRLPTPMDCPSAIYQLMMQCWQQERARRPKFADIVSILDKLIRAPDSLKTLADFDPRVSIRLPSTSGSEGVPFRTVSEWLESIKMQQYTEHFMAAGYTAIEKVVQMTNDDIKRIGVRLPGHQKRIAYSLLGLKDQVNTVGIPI
T2 sequence (P29317 28-206 limits assumed): as the sequence (P29317 28-206 limits assumed) above

Molecule: COc1ccc(C[C@H](NC(=O)[C@@H]2CCCN2C(=O)[C@H](CC(=O)O)NC(=O)c2oc3c(OC)c(OC)ccc3c2C)C(=O)N[C@@H](C)C(=O)N2C[C@H](O)C[C@H]2C(=O)N[C@@H](CC(C)C)C(=O)N[C@@H](CCCNC(=N)N)C(=O)NCC(=O)N[C@@H](Cc2ccc(Cl)cc2)C(=O)N2CCC[C@H]2C(=O)N[C@H](C(=O)N[C@@H](C)C(N)=O)C(C)C)cc1 [Scrambled-135H11] ({2Benzofuroyl(3-Me,6,7-diOMe)}-DPY(Me)A[Hyp]LRG[Phe(4-Cl)]PVA-NH2)
inhibition in DELFIA (in words) [1]: no inhibition

B2: ephrinA1-Fc: dimeric ephrinA1-Fc chimera, positive control (protein)
chain: DRHTVFWNSSNPKFRNEDYTIHVQLNDYVDIICPHYEDHSVADAAMEQYILYLVEHEEYQLCQPQSKDQVRWQCNRPSAKHGPEKLSEKFQRFTPFTLGKEFKEGHSYYYISKPIHQHEDRCLRLKVTVSGKITHSPQAHDNPQEKRLAADDPEVRVLHSIGHS
modifications: left off: Fc, end not stated, kept
notes: dimeric ephrinA1-Fc chimera, positive control
receptor degradation, agonistic effectiveness in cells (in words) (EphA2; at nanomolar concentrations, ref [5],[28],[29],[30],[31],[34]): dramatically more effective as an agonist | EphA2 dimer formation, activation, internalization, degradation (in words) (EphA2; legend of schematic, no reference given): can efficiently induce dimer formation and receptor activation, internalization, and degradation | EphA2 receptor degradation in BxPC3 cells (in words) (EphA2 in BxPC3 cells): nearly complete degradation of the EphA2 receptor | EphA2 receptor degradation in MDA-MB-231 cells (in words) [3]: significant degradation of the EphA2 receptor; also recorded: very effective in causing EphA2 degradation

Molecule: {2Benzofuroyl(3-Me,6,7-diOMe)}-DP[4‑CH3‑Tyr]A[Hyp]LRG[Phe(4-Cl)]PVA-NH2 [Scrambled-135H11]
IC50 [4]: > 10000 nM

The next lines start with the values.

Kd (ITC) (purified EphA2-LBD; N.B. = no binding detected by ITC): N.B. (ITC) | binding to EphA2-LBD by ITC (in words) (purified EphA2-LBD; listed as 147B5 scrambled version): no appreciable binding was detected | binding to EphA2-LBD by ITC (in words) (purified EphA2-LBD; listed as scrambled version of 147B5): no binding detected
Molecule: (3-CH3,6,7-OCH3,Benzofuranoic acid)DP(4-CH3-Tyr)A(Hyp)LRG(4-Cl-Phe)PVA-GK(Biotin LC)-CONH2 [Scrambled-147B5, scrambled 135H11-biotinylated (control)]

Kd [2]: 117 nM
B1: 147B5 (135H11-biotinylated) (peptide)
peptide: LAYPDAVPFRPGK
modifications: N-terminal 3-CH3,6,7-OCH3,Benzofuranoic acid; 4-CH3-Tyr at position 3; Hyp (trans 4-hydroxy-L-proline) at position 8; 4-Cl-Phe at position 9; K(Biotin LC) at position 13 (LC: long 6 atom hydrocarbon chain between the biotin and the amide bond); C-terminal amide (-CONH2)

Source: PMC8235110, “Effective Tumor Targeting by EphA2-Agonist-Biotin-Streptavidin Conjugates” (Molecules, 2021)
